{
  "source": "patent US20060292657A1",
  "about": "“Phex substrates and methods using same” (priority 2003, published 2006)",
  "proteins": {"B1": {"name": "human recombinant secPHEX (Homo sapiens) (protein)", "chain": "SLQAKQEYCLKPECIEAAAAILSKVNLSVDPCDNFFRFACDGWISNNPIPEDMPSYGVYPWLRHNVDLKLKELLEKSISRRRDTEAIQKAKILYSSCMNEKAIEKADAKPLLHILRHSPFRWPVLESNIGPEGVWSERKFSLLQTLATFRGQYSNSVFIRLYVSPDDKASNEHILKLDQATLSLAVREDYLDNSTEAKSYRDALYKFMVDTAVLLGANSSRAEHDMKSVLRLEIKIAEIMIPHENRTSEAMYNKMNISELSAMIPQFDWLGYIKKVIDTRLYPHLKDISPSENVVVRVPQYFKDLFRILGSERKKTIANYLVWRMVYSRIPNLSRRFQYRWLEFSRVIQGTTTLLPQWDKCVNFIESALPYVVGKMFVDVYFQEDKKEMMEELVEGVRWAFIDMLEKENEWMDAGTKRKAKEKARAVLAKVGYPEFIMNDTHVNEDLKAIKFSEADYFGNVLQTRKYLAQSDFFWLRKAVPKTEWFTNPTTVNAFYSASTNQIRFPAGELQKPFFWGTEYPRSLSYGAIGVIVGHEFTHGFDNNGRKYDKNGNLDPWWSTESEEKFKEKTKCMINQYSNYYWKKAGLNVKGKRTLGENIADNGGLREAFRAYRKWINDRRQGLEEPLLPGITFTNNQLFFLSYAHVRCNSYRPEAAREQVQIGAHSPPQFRVNGAISNFEEFQKAFNCPPNSTMNRGMDSCRLW", "notes": "pure soluble form of PHEX (secPHEX); made in house"}},
  "key": {"[1]": {"substrate": "CC[C@H](C)[C@H](NC(=O)[C@H](CCC(=O)O)NC(=O)[C@H](CC(N)=O)NC(=O)[C@H](CC(=O)O)NC(=O)[C@H](CC(C)C)NC(=O)CNC(=O)[C@H](CCCNC(=N)N)NC(=O)c1ccccc1N)C(=O)N[C@@H](CCC(N)=O)C(=O)NCCNc1ccc([N+](=O)[O-])cc1[N+](=O)[O-]", "test": "Kinetic parameters for hydrolysis of internally quenched fluorogenic peptides by secPHEX", "assay_type": "biochemical, human", "conditions": "other: 37° C., 10 mM Bis-Tris buffer pH 5.5, 150 mM NaCl", "method_in_brief": "(§1)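 Purified human recombinant secPHEX hydrolysing internally quenched fluorogenic peptides at 37° C in 10 mM Bis-Tris pH 5.5, 150 mM NaCl; fluorescence (ex 320, em 420 nm) followed continuously, <5% substrate hydrolysed, inner-filter corrected. Km and kcat by non-linear regression; kcat/Km under [S]<<Km where applicable.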"}, "[2]": {"substrate": "C[C@H](NC(=O)[C@H](CC(=O)O)NC(=O)[C@H](CCC(=O)O)NC(=O)[C@H](CO)NC(=O)[C@H](CCCNC(=N)N)NC(=O)c1ccccc1N)C(=O)NCC(=O)N[C@@H](Cc1ccccc1)C(=O)N[C@@H](CCC(N)=O)C(=O)NCCNc1ccc([N+](=O)[O-])cc1[N+](=O)[O-]", "test": "Kinetic parameters for hydrolysis of internally quenched fluorogenic peptides by secPHEX", "assay_type": "biochemical, human", "conditions": "other: 37° C., 10 mM Bis-Tris buffer pH 5.5, 150 mM NaCl", "method_in_brief": "as §1"}},
  "data": [
    {"protein": "B1", "values": [
      {"measurement": "Km", "setting": "[1]", "result": 7.0, "unit": "µM"},
      {"measurement": "kcat", "setting": "[1]", "result": 0.03, "unit": "s⁻¹"},
      {"measurement": "kcat/Km", "setting": "[1]", "result": 4.3, "unit": "mM⁻¹ s⁻¹"},
      {"measurement": "Km", "setting": "[2]", "result": 4.1, "unit": "µM"},
      {"measurement": "kcat", "setting": "[2]", "result": 0.06, "unit": "s⁻¹"},
      {"measurement": "kcat/Km", "setting": "[2]", "result": 14.6, "unit": "mM⁻¹ s⁻¹"}
    ]}
  ]
}
